Measured values: patent US20140178389A1 (AbbVie / Abbott, published 2014)
Values belong to the binder of their own block, whether it stands above or below them.

Legend:
recombinant human IL-1β [1] = molecular target: T1, recombinant human IL-1β (human, UniProt P01584 117-269); assay: SPR (BIAcore); the off-rate reached the limit of detection of the instrument
T1 construct: It was biotinylated in the ELISA and in the yeast display experiments; also called Hu IL-1beta; huIL-1b
Method: (§1) Goat IgGs specific to human IgG Fc were covalently linked to the carboxy methyl dextran matrix on the CMS biosensor chip via free amine groups using an amine coupling kit and the immobilization wizard option in the Biacore instruments controlling software. Specifically, carboxyl groups of the dextran matrix on the chip were activated with NHS and EDC. Goat anti-human IgG Fc antibodies (25 μg/mL), diluted in 10 mM sodium acetate, pH 4.5, were injected across the activated surface. Once the level of binding response reached the desired value, unreacted groups were deactivated by injection of 1M ethanolamine. For binding of IL-1α & IL-1β to captured Ig, a 1 μg/mL concentration of Ig in HBS-EP+ was injected over the goat anti-human IgG Fc surface at a flow rate of 10 μL/min for 1 minute. The net difference in the baseline signal and the signal after the completion of the Ig injection was taken to represent the amount of bound Ig.
(§2) The potency of the 5 DVD-Igs containing affinity matured h1B12.1 domains to recombinant and native IL-1 antigens was determined using the MRC-5 bioassay as shown in Table 24. The binding kinetics of the DVD-Igs to recombinant human and cynomolgus IL-1α and IL-1β were determined using surface plasmon resonance. In some cases, the off-rate could not be determined as they reached the limit of detection of the instrument.

recombinant human IL-1β [2] = molecular target: T1, recombinant human IL-1β; assay: SPR (BIAcore); KD calculated assuming an off-rate of 1x10^-6
Method: as §1, §2

[3] = molecular target: T2, purified native human IL-1β (human, UniProt P01584 117-269); assay: cell-based or functional assay
[4] = molecular target: T3, recombinant cynomolgus IL-1β (cynomolgus, UniProt P79182 117-268); assay: cell-based or functional assay
T3 sequence (looked up): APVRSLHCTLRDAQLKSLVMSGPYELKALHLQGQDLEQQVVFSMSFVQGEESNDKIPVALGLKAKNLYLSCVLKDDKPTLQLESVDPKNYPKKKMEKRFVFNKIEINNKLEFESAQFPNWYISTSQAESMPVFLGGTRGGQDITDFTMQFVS

[5] = molecular target: T4, native human IL-1α present in crude supernatants (human, UniProt P01583 113-271, limits assumed); assay: cell-based or functional assay
T4 sequence (looked up): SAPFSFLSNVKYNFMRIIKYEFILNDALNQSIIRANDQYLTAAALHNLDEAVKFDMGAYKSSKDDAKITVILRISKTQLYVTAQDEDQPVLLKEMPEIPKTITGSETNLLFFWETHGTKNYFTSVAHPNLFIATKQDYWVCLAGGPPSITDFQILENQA

recombinant human IL-1α [6] = molecular target: T5, recombinant human IL-1α (human, UniProt P01583 113-271); assay: cell-based or functional assay
T5 sequence: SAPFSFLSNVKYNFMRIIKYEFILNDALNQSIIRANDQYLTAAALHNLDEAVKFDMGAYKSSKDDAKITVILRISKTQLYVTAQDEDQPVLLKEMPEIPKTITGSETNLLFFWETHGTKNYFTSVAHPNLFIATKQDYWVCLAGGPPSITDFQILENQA

[7] = molecular target: T6, recombinant cynomolgus IL-1α (cynomolgus, UniProt P79340 113-271); assay: cell-based or functional assay
T6 sequence (looked up): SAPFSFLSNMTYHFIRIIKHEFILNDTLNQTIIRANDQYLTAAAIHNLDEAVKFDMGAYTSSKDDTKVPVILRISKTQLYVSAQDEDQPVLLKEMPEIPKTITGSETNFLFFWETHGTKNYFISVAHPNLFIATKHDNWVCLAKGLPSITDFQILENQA

recombinant human IL-1β [8] = molecular target: T1, recombinant human IL-1β; assay: cell-based or functional assay
[9] = molecular target: T3, recombinant cynomolgus IL-1β; assay: SPR (BIAcore), DVD-Ig captured via goat anti-human IgG Fc
Method: as §1, §2

recombinant human IL-1α [10] = molecular target: T5, recombinant human IL-1α; assay: as above
Method: as §1, §2

[11] = molecular target: T6, recombinant cynomolgus IL-1α; assay: as above
Method: as §1, §2

recombinant human IL-1β [12] = molecular target: T1, recombinant human IL-1β; assay: as above
Method: as §1, §2

[13] = molecular target: T3, recombinant cynomolgus IL-1β; assay: SPR (Biacore), Expt 2
Method: as §1

recombinant human IL-1β [14] = molecular target: T1, recombinant human IL-1β; assay: SPR (Biacore), Expt 2
Method: as §1

[15] = molecular target: T2, purified native human IL-1β; assay: cell-based or functional assay; remark: listed apart in the source
[16] = molecular target: T3, recombinant cynomolgus IL-1β; assay: cell-based or functional assay; remark: listed apart in the source
recombinant human IL-1β [17] = molecular target: T1, recombinant human IL-1β; assay: cell-based or functional assay; remark: listed apart in the source
[18] = molecular target: T3, recombinant cynomolgus IL-1β; assay: SPR (Biacore), average of 2 experiments
Method: as §1

recombinant human IL-1β [19] = molecular target: T1, recombinant human IL-1β; assay: SPR (Biacore), average of 2 experiments
Method: as §1

[20] = molecular target: T3, recombinant cynomolgus IL-1β; assay: SPR (Biacore), Expt 1
Method: as §1

recombinant human IL-1β [21] = molecular target: T1, recombinant human IL-1β; assay: SPR (Biacore), Expt 1
Method: as §1

[22] = molecular target: T4, native human IL-1α present in crude …; assay: cell-based or functional assay; remark: listed apart in the source
recombinant human IL-1α [23] = molecular target: T5, recombinant human IL-1α; assay: cell-based or functional assay; remark: listed apart in the source
[24] = molecular target: T6, recombinant cynomolgus IL-1α; assay: cell-based or functional assay; remark: listed apart in the source
[25] = molecular target: T3, recombinant cynomolgus IL-1β; assay: SPR (Biacore), Ig captured via goat anti-human IgG Fc, antigen in solution
Method: as §1

recombinant human IL-1α [26] = molecular target: T5, recombinant human IL-1α; assay: as above
Method: as §1

[27] = molecular target: T6, recombinant cynomolgus IL-1α; assay: as above
Method: as §1

recombinant human IL-1β [28] = molecular target: T1, recombinant human IL-1β; assay: as above
Method: as §1

koff (recombinant human IL-1β [1]): < 1e-06 s⁻¹ | Kd (recombinant human IL-1β [2]): < 0.026 pM | Potency (IC50) pM, MRC-5 bioassay [3]: 0.998 pM | Potency (IC50) pM, MRC-5 bioassay [4]: 2.13 pM | Potency (IC50) pM, MRC-5 bioassay [5]: 50.4 pM | Potency (IC50) pM, MRC-5 bioassay (recombinant human IL-1α [6]): 41.3 pM | Potency (IC50) pM, MRC-5 bioassay [7]: 1900 pM | Potency (IC50) pM, MRC-5 bioassay (recombinant human IL-1β [8]): 42.2 pM | Kd [9]: 0.67 pM | koff [9]: 1.2e-05 s⁻¹ | kon [9]: 1.8e+07 M⁻¹ s⁻¹ | Kd (recombinant human IL-1α [10]): 30 pM | koff (recombinant human IL-1α [10]): 4.2e-06 s⁻¹ | kon (recombinant human IL-1α [10]): 140000 M⁻¹ s⁻¹ | Kd [11]: 2300 pM | koff [11]: 0.00024 s⁻¹ | kon [11]: 100000 M⁻¹ s⁻¹ | kon (recombinant human IL-1β [12]): 3.9e+07 M⁻¹ s⁻¹
B1: DVD3-h1B12.34-SS-X3, human anti-IL-1α/β DVD IgG1/k mut (234,235) (bispecific antibody)
heavy: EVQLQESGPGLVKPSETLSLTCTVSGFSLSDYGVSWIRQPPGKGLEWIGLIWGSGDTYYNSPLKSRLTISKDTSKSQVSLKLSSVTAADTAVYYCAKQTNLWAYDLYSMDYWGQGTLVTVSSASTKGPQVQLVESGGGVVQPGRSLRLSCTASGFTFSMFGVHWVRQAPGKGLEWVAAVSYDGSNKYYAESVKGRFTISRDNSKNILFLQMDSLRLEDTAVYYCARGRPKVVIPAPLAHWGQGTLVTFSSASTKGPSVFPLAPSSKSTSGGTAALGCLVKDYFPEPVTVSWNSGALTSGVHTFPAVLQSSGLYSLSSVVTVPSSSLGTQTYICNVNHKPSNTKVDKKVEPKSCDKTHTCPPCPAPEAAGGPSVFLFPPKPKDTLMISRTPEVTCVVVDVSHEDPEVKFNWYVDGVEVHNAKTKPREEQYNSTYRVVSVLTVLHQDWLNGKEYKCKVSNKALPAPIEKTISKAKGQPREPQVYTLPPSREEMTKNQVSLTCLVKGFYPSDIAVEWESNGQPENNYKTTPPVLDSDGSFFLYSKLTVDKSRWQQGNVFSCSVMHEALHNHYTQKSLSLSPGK
light: DIQMTQSPSSLSASVGDRVTITCQASQDIDDDLNWYQQKPGKAPKLLISLASILRPGVPSRFSGSGSGTDFTFTISSLQPEDFATYYCLQSDSFPLTFGQGTKLEIKRTVAAPDIQMTQSPSSVSASVGDRVTITCRASQGISSWLAWYQQKPGKAPKLLIYEASNLETGVPSRFSGSGSGSDFTLTISSLQPEDFATYYCQQTSSFLLSFGGGTKVEHKRTVAAPSVFIFPPSDEQLKSGTASVVCLLNNFYPREAKVQWKVDNALQSGNSQESVTEQDSKDSTYSLSSTLTLSKADYEKHKVYACEVTHQGLSSPVTKSFNRGEC
notes: also called PR-1358318

Potency IC50 (pM), MRC-5 bioassay (IL-8 secretion) [15]: 329 pM | Potency IC50 (pM), MRC-5 bioassay (IL-8 secretion) [16]: 410 pM | Potency IC50 (pM), MRC-5 bioassay (IL-8 secretion) (recombinant human IL-1β [17]): 913 pM
B3: Humanized monoclonal antibody 1B12.1 (antibody, V domains shown)
VH: EVQLQESGPGLVKPSETLSLTCTVSGFSLSDYGVSWIRQPPGKGLEWLGLIWGGGDTYYNSPLKSRLTISKDNSKSQVSLKLSSVTAADTAVYYCAKQRTLWGYDLYGMDYWGQGTLVTVSS
VL: DTQVTQSPSSLSASVGDRVTITCITSTDIDVDMNWYQQKPGKPPKLLISQGNTLRPGVPSRFSSSGSGTDFTFTISSLQPEDFATYYCLQSDNLPLTFGQGTKLEIK

The next lines start with the binder.

B2: 1B12.9, human anti-IL-1β IgG1/k mut (234,235) (antibody, V domains shown)
VH: EVQLQESGPGLVKPSETLSLTCTVSGFSLSDYGVSWIRQPPGKGLEWLGLIWGGGDTYYNSPLKSRLTISKDNSKSQVSLKLSSVTAADTAVYYCAKQRTLWGYDLYGMDYWGQGTLVTVSS
VL: DTQMTQSPSSLSASVGDRVTITCITSTDIDVDMNWYQQKPGKPPKLLISQGNTLRPGVPSRFSSSGSGTDFTFTISSLQPEDFATYYCLQSDNLPLTFGQGTKLEIKR
notes: also called PR-1317335; mAb 1B12.9
Kd [13]: 600 pM | koff [13]: 0.00085 s⁻¹ | kon [13]: 1.4e+06 M⁻¹ s⁻¹ | Kd (recombinant human IL-1β [14]): 130 pM | koff (recombinant human IL-1β [14]): 0.00077 s⁻¹ | kon (recombinant human IL-1β [14]): 5.8e+06 M⁻¹ s⁻¹ | Potency IC50 (pM), MRC-5 bioassay (IL-8 secretion) [15]: 214 pM | Potency IC50 (pM), MRC-5 bioassay (IL-8 secretion) [16]: 352 pM | Potency IC50 (pM), MRC-5 bioassay (IL-8 secretion) (recombinant human IL-1β [17]): 691 pM | Kd [18]: 550 pM | koff [18]: 0.00092 s⁻¹ | kon [18]: 1.7e+06 M⁻¹ s⁻¹ | Kd (recombinant human IL-1β [19]): 140 pM | koff (recombinant human IL-1β [19]): 0.00077 s⁻¹ | kon (recombinant human IL-1β [19]): 5.7e+06 M⁻¹ s⁻¹ | Kd [20]: 490 pM | koff [20]: 0.00098 s⁻¹ | kon [20]: 2e+06 M⁻¹ s⁻¹ | Kd (recombinant human IL-1β [21]): 140 pM | koff (recombinant human IL-1β [21]): 0.00076 s⁻¹ | kon (recombinant human IL-1β [21]): 5.5e+06 M⁻¹ s⁻¹

B4: 1B12.1-SS-X3 DVD-Ig IgG1/k mut (234,235) (bispecific antibody)
heavy: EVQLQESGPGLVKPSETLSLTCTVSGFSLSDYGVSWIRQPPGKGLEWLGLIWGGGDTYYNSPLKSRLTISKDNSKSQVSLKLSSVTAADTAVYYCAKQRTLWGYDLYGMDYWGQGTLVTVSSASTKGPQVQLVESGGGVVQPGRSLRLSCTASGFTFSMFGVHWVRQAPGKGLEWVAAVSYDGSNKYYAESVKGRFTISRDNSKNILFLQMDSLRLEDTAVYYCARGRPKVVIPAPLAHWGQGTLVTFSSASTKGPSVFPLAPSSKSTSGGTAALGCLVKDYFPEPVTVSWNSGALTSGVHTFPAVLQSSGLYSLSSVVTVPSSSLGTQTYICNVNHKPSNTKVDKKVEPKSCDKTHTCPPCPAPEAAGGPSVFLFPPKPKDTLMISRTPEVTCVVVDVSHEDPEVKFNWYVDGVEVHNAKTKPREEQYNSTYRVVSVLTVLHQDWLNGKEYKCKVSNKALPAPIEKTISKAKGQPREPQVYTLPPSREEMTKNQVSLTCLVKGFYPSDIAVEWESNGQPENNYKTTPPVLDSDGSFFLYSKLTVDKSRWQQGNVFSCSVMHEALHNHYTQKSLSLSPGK
light: DTQVTQSPSSLSASVGDRVTITCITSTDIDVDMNWYQQKPGKPPKLLISQGNTLRPGVPSRFSSSGSGTDFTFTISSLQPEDFATYYCLQSDNLPLTFGQGTKLEIKRTVAAPDIQMTQSPSSVSASVGDRVTITCRASQGISSWLAWYQQKPGKAPKLLIYEASNLETGVPSRFSGSGSGSDFTLTISSLQPEDFATYYCQQTSSFLLSFGGGTKVEHKRTVAAPSVFIFPPSDEQLKSGTASVVCLLNNFYPREAKVQWKVDNALQSGNSQESVTEQDSKDSTYSLSSTLTLSKADYEKHKVYACEVTHQGLSSPVTKSFNRGEC
notes: also called PR-1308565
Potency IC50 (pM), MRC-5 bioassay (IL-8 secretion) [15]: 156 pM | Potency IC50 (pM), MRC-5 bioassay (IL-8 secretion) [16]: 461 pM | Potency IC50 (pM), MRC-5 bioassay (IL-8 secretion) [22]: 79 pM | Potency IC50 (pM), MRC-5 bioassay (IL-8 secretion) (recombinant human IL-1α [23]): 27 pM | Potency IC50 (pM), MRC-5 bioassay (IL-8 secretion) [24]: 2510 pM | Potency IC50 (pM), MRC-5 bioassay (IL-8 secretion) (recombinant human IL-1β [17]): 26 pM | Kd [25]: 110 pM | koff [25]: 0.0008 s⁻¹ | kon [25]: 7.3e+06 M⁻¹ s⁻¹ | Kd (recombinant human IL-1α [26]): 120 pM | koff (recombinant human IL-1α [26]): 2.4e-05 s⁻¹ | kon (recombinant human IL-1α [26]): 210000 M⁻¹ s⁻¹ | Kd [27]: 3500 pM | koff [27]: 0.00026 s⁻¹ | kon [27]: 74000 M⁻¹ s⁻¹ | Kd (recombinant human IL-1β [28]): < 820 pM | koff (recombinant human IL-1β [28]): 0.00082 s⁻¹ | kon (recombinant human IL-1β [28]): > 1e+06 M⁻¹ s⁻¹
